For the first assay, the system named is CD8+ T cells. Nature of the assay: In vitro T-cell priming assay with artificial antigen presenting cells loaded with peptide/MHC complexes and anti-CD28 antibody, pMHC multimer readout. Format: cell-based, human. Particulars: Table 10a; in vitro immunogenicity, peptide-specific multimer+ CD8+ T cells. The source says: In order to obtain information regarding the immunogenicity of the TUMAPs of the present invention, the inventors performed investigations using an in vitro T-cell priming assay based on repeated stimulations of CD8+ T cells with artificial antigen presenting cells (aAPCs) loaded with peptide/MHC complexes and anti-CD28 antibody.
In order to perform in vitro stimulations by artificial antigen presenting cells loaded with peptide-MHC complex (pMHC) and anti-CD28 antibody, the inventors first isolated CD8+ T cells from fresh HLA-A*02 leukapheresis products via positive selection using CD8 microbeads (Miltenyi Biotec, Bergisch-Gladbach, Germany) of healthy donors obtained from the University clinics Mannheim, Germany, after informed consent.
PBMCs and isolated CD8+ lymphocytes were incubated in T-cell medium (TCM) until use consisting of RPMI-Glutamax (Invitrogen, Karlsruhe, Germany) supplemented with 10% heat inactivated human AB serum (PAN-Biotech, Aidenbach, Germany), 100 U/ml Penicillin/100 μg/ml Streptomycin (Cambrex, Cologne, Germany), 1 mM sodium pyruvate (CC Pro, Oberdorla, Germany), 20 μg/ml Gentamycin (Cambrex). 2.5 ng/ml IL-7 (PromoCell, Heidelberg, Germany) and 10 U/ml IL-2 (Novartis Pharma, Nurnberg, Germany) were also added to the TCM at this step.
Generation of pMHC/anti-CD28 coated beads, T-cell stimulations and readout was performed in a highly defined in vitro system using four different pMHC molecules per stimulation condition and 8 different pMHC molecules per readout condition.
The purified co-stimulatory mouse IgG2a anti human CD28 Ab 9.3 (Jung et al., 1987) was chemically biotinylated using Sulfo-N-hydroxysuccinimidobiotin as recommended by the manufacturer (Perbio, Bonn, Germany). Beads used were 5.6 μm diameter streptavidin coated polystyrene particles (Bangs Laboratories, Illinois, USA).
pMHC used for positive and negative control stimulations were A*0201/MLA-001 (peptide […] (SEQ ID NO. 433) from modified Melan-A/MART-1) and A*0201/DDX5-001 ([…] from DDX5, SEQ ID NO. 434), respectively.
800.000 beads/200 μI were coated in 96-well plates in the presence of 4×12.5 ng different biotin-pMHC, washed and 600 ng biotin anti-CD28 were added subsequently in a volume of 200 μI. Stimulations were initiated in 96-well plates by co-incubating 1×10^6 CD8+ T cells with 2×10^5 washed coated beads in 200 μI TCM supplemented with 5 ng/ml IL-12 (PromoCell) for 3 days at 37° C. Half of the medium was then exchanged by fresh TCM supplemented with 80 U/ml IL-2 and incubating was continued for 4 days at 37° C. This stimulation cycle was performed for a total of three times. For the pMHC multimer readout using 8 different pMHC molecules per condition, a two-dimensional combinatorial coding approach was used as previously described (Andersen et al., 2012) with minor modifications encompassing coupling to 5 different fluorochromes. Finally, multimeric analyses were performed by staining the cells with Live/dead near IR dye (Invitrogen, Karlsruhe, Germany), CD8-FITC antibody clone SK1 (BD, Heidelberg, Germany) and fluorescent pMHC multimers. For analysis, a BD LSRII SORP cytometer equipped with appropriate lasers and filters was used. Peptide specific cells were calculated as percentage of total CD8+ cells. Evaluation of multimeric analysis was done using the FlowJo software (Tree Star, Oregon, USA). In vitro priming of specific multimer+CD8+ lymphocytes was detected by comparing to negative control stimulations.
Regarding “399 (YVGKEHMFY; listed as Homo sapiens) [compound 399]”, the “Wells positive [%]” value was “+ (<20% = +)”.
With “400 (NTDNNLAVY; listed as Homo sapiens) [compound 400]”, the “Wells positive [%]” value was “+ (<20% = +)”.
Same read-out and setting: under “401 (VWSNVTPLKF; listed as Homo sapiens) [compound 401]” stands “+ (<20% = +)”; under “403 (SADDIRGIQSLY; listed as Homo sapiens) [compound 403]”, “+ (<20% = +)”; under “404 (FVDNQYWRY; listed as Homo sapiens) [compound 404]”, “+ (<20% = +)”.
On the same count and under the same terms, next, “408 (VWSDVTPLTF; listed as Homo sapiens) [compound 408]”: “+ (<20% = +)”.
As for “414 (LTEGHSGNYY; listed as Homo sapiens) [compound 414]”, the “Wells positive [%]” value is listed as “+ (<20% = +)”.
On the same count and under the same terms, under “415 (VWSDVTPLNF; listed as Homo sapiens) [compound 415]” stands “+ (<20% = +)”.
Still for that read-out and setting: next, “417 (KLDRSVFTAY; listed as Homo sapiens) [compound 417]”: “++++ (>= 70% = ++++)”; “420 (VTDLEMPHY; listed as Homo sapiens) [compound 420]”: “+ (<20% = +)”; “421 (RSDPGGGGLAY; listed as Homo sapiens) [compound 421]”: “+ (<20% = +)”.
In the case of “427 (LTDYINANY; listed as Homo sapiens) [compound 427]”, the “Wells positive [%]” value is recorded as “+ (<20% = +)”.
The same measure, in the same setting: next, “429 (VSDSECLSRY; listed as Homo sapiens) [compound 429]”: “++ (20%-49% = ++)”.

Staying with this assay, now noted: Table 10b; in vitro immunogenicity, peptide-specific multimer+ CD8+ T cells.
Take “10 (VSERTGISY; listed as Homo sapiens) [compound 10]”: the “Wells positive [%]” value is reported as “+ (<20% = +)”.
The same measure, in the same setting: next, “11 (ASDHWRGRY; listed as Homo sapiens) [compound 11]”: “+++ (50%-69% = +++)”; “12 (YTDFVGEGLY; listed as Homo sapiens) [compound 12]”: “+ (<20% = +)”; “18 (RSDPVSLRY; listed as Homo sapiens) [compound 18]”: “++ (20%-49% = ++)”.
In the case of “19 (LTEGHSGNY; listed as Homo sapiens) [compound 19]”, the “Wells positive [%]” value is “+ (<20% = +)”.
The same measure, in the same setting: under “24 (NLDHYTNAY; listed as Homo sapiens) [compound 24]” stands “+ (<20% = +)”.
Take “26 (ASDDFRSKY; listed as Homo sapiens) [compound 26]”: the “Wells positive [%]” value is recorded as “++ (20%-49% = ++)”.
On the same count and under the same terms, under “27 (PSEVPVDSHY; listed as Homo sapiens) [compound 27]” stands “+ (<20% = +)”.
Regarding “33 (SMDPVTGYQY; listed as Homo sapiens) [compound 33]”, the “Wells positive [%]” value is reported as “+ (<20% = +)”.

Another assay addresses HLA-A*01:01 (Homo sapiens, UniProt P04439, A114D/A174V/A182V/D101N/D185E/E176A/E190D/L180R/Q94H/R68K/S129P/T187R/V100A/V91M/W191G). Nature of the assay: MHC binding assay: UV-ligand exchange, ELISA of stabilized MHC complexes (peptide exchange yield). The settings on record: binding to HLA-A*01:01, UV-ligand exchange. Summed up: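 Peptide–MHC complexes were formed by UV-induced exchange of a photocleavable ligand for the test peptide. Exchange yield was measured by streptavidin-capture ELISA of 100-fold diluted complexes, detected with HRP anti-β2m at A450. Refolded HLA-A*02:01/MLA-001 monomers at 15-500 ng/ml served as standards.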
With “10 (VSERTGISY; listed as Homo sapiens) [compound 10]”, the Peptide exchange result is listed as “+++ (>50 = +++)”.
In the case of “11 (ASDHWRGRY; listed as Homo sapiens) [compound 11]”, the Peptide exchange entry is listed as “+++ (>50 = +++)”.
Regarding “12 (YTDFVGEGLY; listed as Homo sapiens) [compound 12]”, the Peptide exchange result is on record as “+++ (>50 = +++)”.
Take “18 (RSDPVSLRY; listed as Homo sapiens) [compound 18]”: the Peptide exchange entry is recorded as “++++ (>75% = ++++)”.
Still for that read-out and setting: under “19 (LTEGHSGNY; listed as Homo sapiens) [compound 19]” stands “++++ (>75% = ++++)”.
Still for that read-out and setting: under “24 (NLDHYTNAY; listed as Homo sapiens) [compound 24]” stands “+++ (>50 = +++)”.
Regarding “26 (ASDDFRSKY; listed as Homo sapiens) [compound 26]”, the Peptide exchange result was “+++ (>50 = +++)”.
For the substance “27 (PSEVPVDSHY; listed as Homo sapiens) [compound 27]”, the Peptide exchange result is recorded as “++++ (>75% = ++++)”.
Turning to “33 (SMDPVTGYQY; listed as Homo sapiens) [compound 33]”, the Peptide exchange result was “+++ (>50 = +++)”.
Still for that read-out and setting: under “368 (ESAATGQLDY; listed as Homo sapiens) [compound 368]” stands “+++ (>50 = +++)”.
“369 (AVMEAAFVY; listed as Homo sapiens) [compound 369]”: the Peptide exchange entry is on record as “+++ (>50 = +++)”.
With “370 (RLSTIRHLY; listed as Homo sapiens) [compound 370]”, the Peptide exchange entry was “+++ (>50 = +++)”.
Regarding “371 (WSDSTSQTIY; listed as Homo sapiens) [compound 371]”, the Peptide exchange result is listed as “++++ (>75% = ++++)”.
In the case of “372 (SRSDFEWVY; listed as Homo sapiens) [compound 372]”, the Peptide exchange entry is given as “++ (>20% = ++)”.
Turning to “373 (FHADSDDESF; listed as Homo sapiens) [compound 373]”, the Peptide exchange result is reported as “+ (>10% =+)”.
Still for that read-out and setting: under “375 (ASSLDSLHY; listed as Homo sapiens) [compound 375]” stands “++++ (>75% = ++++)”.
On to “376 (EDDEDEDLY; listed as Homo sapiens) [compound 376]”, for which the Peptide exchange result is “+++ (>50 = +++)”.
Same read-out and setting: under “377 (YADPSANRDLL; listed as Homo sapiens) [compound 377]” stands “++ (>20% = ++)”.
Still for that read-out and setting: under “378 (TAKAPSTEY; listed as Homo sapiens) [compound 378]” stands “++ (>20% = ++)”; under “379 (SLIIDDTEY; listed as Homo sapiens) [compound 379]”, “++ (>20% = ++)”; under “380 (VACGNNPVY; listed as Homo sapiens) [compound 380]”, “+++ (>50 = +++)”.
With “381 (ETSFSTSHY; listed as Homo sapiens) [compound 381]”, the Peptide exchange result is given as “++++ (>75% = ++++)”.
Same read-out and setting: under “382 (YEPATMEQY; listed as Homo sapiens) [compound 382]” stands “++ (>20% = ++)”; under “383 (PPDHAVGRTKY; listed as Homo sapiens) [compound 383]”, “++ (>20% = ++)”; under “384 (RFRSITQSYY; listed as Homo sapiens) [compound 384]”, “+ (>10% =+)”.
Still for that read-out and setting: next, “385 (SANALILTY; listed as Homo sapiens) [compound 385]”: “++ (>20% = ++)”; “388 (YTAHVGYSMY; listed as Homo sapiens) [compound 388]”: “++++ (>75% = ++++)”.
Turning to “389 (YYDLVESTF; listed as Homo sapiens) [compound 389]”, the Peptide exchange result is “+ (>10% =+)”.
Still for that read-out and setting: next, “390 (FSEPFHLIVSY; listed as Homo sapiens) [compound 390]”: “++++ (>75% = ++++)”; “391 (GSNPARYEF; listed as Homo sapiens) [compound 391]”: “++ (>20% = ++)”.
Take “392 (TQHFVQENY; listed as Homo sapiens) [compound 392]”: the Peptide exchange result is “++ (>20% = ++)”.
Still for that read-out and setting: under “393 (QVWGGQPVY; listed as Homo sapiens) [compound 393]” stands “+ (>10% =+)”; under “394 (QVPLDCVLY; listed as Homo sapiens) [compound 394]”, “++ (>20% = ++)”.
Same read-out and setting: next, “395 (ILKGGSGTY; listed as Homo sapiens) [compound 395]”: “++ (>20% = ++)”; “396 (LPDPNVQKY; listed as Homo sapiens) [compound 396]”: “++ (>20% = ++)”; “397 (NSAINPLIY; listed as Homo sapiens) [compound 397]”: “++++ (>75% = ++++)”.
Regarding “398 (YYYDTHTNTY; listed as Homo sapiens) [compound 398]”, the Peptide exchange entry is listed as “+ (>10% =+)”.

(Values after patent US12195506B2, “Immunotherapy with A*01 restricted peptides and combination of peptides against cancers and related methods” (Immatics Biotechnologies GmbH, priority 2018, dated 2025).)
